PMC7809593 (2021)

Target: CXCL12α (Homo sapiens, UniProt P48061, CXCR4 fused to Kate2)
Experiment: receptor internalization sensor

Kd: ~2 nM
B1: CXCR4 (protein)
chain: MEGISIYTSDNYTEEMGSGDYDSMKEPCFREENANFNKIFLPTIYSIIFLTGIVGNGLVILVMGYQKKLRSMTDKYRLHLSVADLLFVITLPFWAVDAVANWYFGNFLCKAVHVIYTVNLYSSVLILAFISLDRYLAIVHATNSQRPRKLLAEKVVYVGVWIPALLLTIPDFIFANVSEADDRYICDRFYPNDLWVVVFQFQHIMVGLILPGIVILSCYCIIISKLSHSKGHQKRKALKTTVILILAFFACWLPYYIGISIDSFILLEIIKQGCEFENTVHKWISITEALAFFHCCLNPILYAFLGAKFKTSAQHALTSVSRGSSLKILSKGKRGGHSSVSTESESSSFHSS
